Measurements as given in article PMC7913460, “Targeting hydroxycinnamoyl CoA: shikimate hydroxycinnamoyl transferase for lignin modification in Brachypodium distachyon” (Biotechnology for Biofuels, 2021).

Legend:
[1] = substrate: CC(C)(COP(=O)(O)OP(=O)(O)OC[C@H]1O[C@@H](n2cnc3c(N)ncnc32)[C@H](O)[C@@H]1OP(=O)(O)O)[C@@H](O)C(=O)NCCC(=O)NCCSC(=O)/C=C/c1ccc(O)cc1; assay: HPLC product assay, forward HCT reaction; format: biochemical, Arabidopsis thaliana; conditions: 500 µM shikimic acid, 100 mM sodium phosphate pH 7.5, 500 µM DTT, kcat apparent
Excerpt: HPLC product assay, forward HCT reaction on AtHCT1

[2] = substrate: O=C(/C=C/c1ccc(O)c(O)c1)O[C@@H]1CC(C(=O)O)=C[C@@H](O)[C@H]1O; assay: HPLC product assay, reverse HCT reaction; format: biochemical, Arabidopsis thaliana; conditions: 500 µM CoA, 100 mM sodium phosphate pH 7.5, 500 µM DTT, kcat apparent, substrate tested 20 to 400 µM
Excerpt: HPLC product assay, reverse HCT reaction on AtHCT1

B1: AtHCT1 (Arabidopsis thaliana) (protein)
chain: MKINIRDSTMVRPATETPITNLWNSNVDLVIPRFHTPSVYFYRPTGASNFFDPQVMKEALSKALVPFYPMAGRLKRDDDGRIEIDCNGAGVLFVVADTPSVIDDFGDFAPTLNLRQLIPEVDHSAGIHSFPLLVLQVTFFKCGGASLGVGMQHHAADGFSGLHFINTWSDMARGLDLTIPPFIDRTLLRARDPPQPAFHHVEYQPAPSMKIPLDPSKSGPENTTVSIFKLTRDQLVALKAKSKEDGNTVSYSSYEMLAGHVWRSVGKARGLPNDQETKLYIATDGRSRLRPQLPPGYFGNVIFTATPLAVAGDLLSKPTWYAAGQIHDFLVRMDDNYLRSALDYLEMQPDLSALVRGAHTYKCPNLGITSWVRLPIYDADFGWGRPIFMGPGGIPYEGLSFVLPSPTNDGSLSVAIALQSEHMKLFEKFLFEI
[1]
  Km: 18.5 µM
  kcat: 17.5 s⁻¹
  kcat/Km: 950000 M⁻¹ s⁻¹
[2]
  Km: 225.0 µM
  kcat: 17 s⁻¹
  kcat/Km: 76000 M⁻¹ s⁻¹
